Data taken from PMC12384205.

Target: RGD-binding integrins on HeLa cells (α5β1, αvβ5, αvβ3) (human (endogenous in HeLa))
Assay: resonant waveguide grating (RWG) live-cell competitive adhesion assay; sensor coated with 50% PPR (RGD peptide); HeLa cells (8000 per well) with soluble S1 or BSA in HEPES-HBSS, 90 min; normalised adhesion fitted with a sigmoidal curve; Kd calculated from the IC50 with [RGD] 2.39 µM and Kd^RGD 9.4 µM

## recombinant human coronavirus SARS-CoV-2 Spike Glycoprotein S1 (Active)
  IC50: 1400 nM
  Kd: 1120 nM
